Source: the DeepSol protein solubility set

Test: soluble on expression in E. coli; label from the status in PepcDB or PDB records

Sequence | soluble on expression in E. coli
MNEEGGYLGAMTYQCLYSPVMEKIKQQHRDDPRASLALNKLHTALTTCEQASPSFLYDFTKVLLDDSELSVNLQESYLRMHDTSPTNDLIVSGYEQNADYKELTKRAIELRRVLSRVPEEMSDRHAFLETIKLIASSIKKLLEAINAVYRIVPLTAQPAVEKRKREFVHYSKRFSNTLKTYFKDQNANQVSVSANQLVFQTTMIVRTINEKLRRG | not soluble
MGGSHHHHHHGMASTQLFLWEYGDLHLFGPNQRPAPCYDPCEAVLVESIPEGLDFPNASTGNPSTSQAWLGLLAGAHSSLDIASFYWTLTNNDTHTQEPSAQQGEEVLRQLQTLAPKGVNVRIAVSKPSGPQPQADLQALLQSGAQVRMVDMQKLTHGVLHTKFWVVDQTHFYLGSANMDWRSLTQVKELGVVMYNCSCLARDLTKIFEAYWFLGQAGSSIPSTWPRFYDTRYNQETPMEICLNGTPALAYLASAPPPLCPSGRTPDLKALLNVVDNARSFIYVAVMNYLPTLEFSHPHRFWPAIDDGLRRATYERGVKVRLLISCWGHSEPSMRAFLLSLAALRDNHTHSDIQVKLFVVPADEAQARIPYARVNHNKYMVTERATYIGTSNWSGNYFTETAGTSLLVTQNGRGGLRSQLEAIFLRDWDSPYIHDLDTSADSVGNACRLL | not soluble
MAETVGMILCGGFGKRLRPLTEKIPKPLIEIKEGYTILDKQLFDLKNAGINTVYLLTGFLGERIEERYGDNYKGLRIEYVREEKPLGTLNAIRLGMEAIDGEKQCIIRNGDVVADLNIKKMIHLGEMSDYPLTMFITRMQSPYGIVETSGDKIINFREKPLLDYYINAGVYFSKGNLDFGDFESGDIEKTLFPLMAKENKLGYYREDGLFWMAIDTSKELEEIRKEYRNREDKPWGYEKILINTEKYLTKELFIREGYRTSFHYHEEKDETMYIISGSGYIEFDNRKEYFSKNDTIRIEPGERHSIVAMENTVLHEVSTPHLNDTVRVQDYYTRLEHHHHHH | soluble
MSGILALGAYVPERVMTNADFEAYLDTSDEWIVTRTGIKERRVAAEDEYTSDLAFKAVEDLLRRHPGALEGVDAVIVATNTPDALFPDTAALVQARFGLKAFAYDLLAGCPGWIYALAQAHALVEAGLAQKVLAVGAEALSKIIDWNDRATAVLFGDGGGAAVVGKVREGYGFRSFVLGADGTGAKELYHACVAPRLPDGTSMKNRLYMNGREVFKFAVRVMNTATLEAIEKAGLTPEDIRLFVPHQANLRIIDAARERLGLPWERVAVNVDRYGNTSTASIPLALKEALDAGRIREGDHVLLVSFGAGLTWAAAVLTWGGA | soluble
DNDSAPKEPTGPVTLIFTDIESSTALWAAHPDLMPDAVATHHRLIRSLITRYECYEVKTVGDSFMIASKSPFAAVQLAQELQLCFLRLDWETNAVDESYREFEEQRAEGECEYTPPTASLDPEVYSRLWNGLRVRVGIHTGLCDIRYDEVTKGYDYYGRTSNMAARTESVANGGQVLMTHAAYMSLSGEDRNQLDVTTLGATVLRGVPEPVRMYQLNAVPGRNFAALRLDR | soluble
MAHHHHHHMPLLTRGQRRLLEYVAHDGGTKGLKRRRMEDVAPVLHKRKQKWTHKFTTKTASADASLAEVPLSSEVLEFLREYCPKVPRKLRQSQLRVISDLSGAFGGNSEKEEGETFTVKRVELKENAEVFAVVALAALQRRALWSGSTPQGASLFVLVETDADAAALAAHMGNTYKMTRTLVLDGSRFPTFPAVEKDDAATATTLAERTALVIASLQAFVTVDARSAIWKFIGAYAIWLKSSKPPALLQEMADGTRSELEENCAGSGGVVWDMPRWLLSLLHRESPSLHP | not soluble
GQDQRRRRIVSRRIYKRIMLKPHYLSIPEAQLEAMNNIQLNPIMKLINNNSDSPVMLSSPPDIFTAGKDMFDCFFRDIEAARHHVHIQFYVIEDDHLGSRLSDLLIRKVQEGVKVRVIFDHVGSWATGRGYWKRLRRAGVEAYPFMPVFFPILSSRVNYRNHRKVAVIDGKIGYLGGMNVADRYYSGNRLGLWRDTHFRMMGNVVAGLQSSFLLDWYVVSRRVINLSGYYPDLPIPVSDEGVKIQLVRSGPVGQWRTIEQATIYCIERACEHVYIETPYFLPTEGLN | not soluble
MGSDKIHHHHHHMNYKLISIDLAKTVFQVAAFNPDNTIAFNRKINRPALLDMLRQCEPTLVVMEACYSANYWGRTIEKLGHTVKLIPARMVKAMLVGNKNDANDAVAIGETAGRPKVSLLRPKTVEQQDIQSLLRIRERLVENRTANCNQLRGFLAEYGLIVAKTRRQLMLAIPLILEDADNELSTVARGFIQRLYEFQLYLNEQIDQVAQDILALAQAMPQYPLLLTIPGVGPIVASTLLASINEVNDFKNGRQLAAWLGLTPSQYSSGTTNRLGKITKRGNQTLRRLLIHGARTVVNWCDKKDDSLSLWLQRLKQRQHVCKVTVALANKMARMVFVVMSRGQAFDMNKACKLAT | not soluble
SNAMTQQDFRTKVDNTVFGVRATALIVQNHKLLVTKDKGKYYTIGGAIQVNESTEDAVVREVKEELGVKAQAGQLAFVVENRFEVDGVSYHNIEFHYLVDLLEDAPLTMQEDEKRQPCEWIDLDKLQNIQLVPVFLKTALPDWEGQLRHIHLEE | soluble
GPGSMDVLVPRAASSGAVGRTPAARTFSAAPPSASSSLCVVGSADHGLKVFNLCTMRELKTLYTKTCGHTEWVTACRFLSDRRVISGGMDSKLCLWNDVTRGGPGRCVDLLGHTGSISQVEVNERHGRSIAMSSSYDRTIRVWELDGIAGGREMGCLSGHKGPVTQFSWLETEVLSGDRQGTVKLWDVETAQCHLTASSKRGQIGSLAHLVHPGVGHLALFGDQGGALTVVDARGPSSAKPLFQDVLHPGGMVTFIRAPSPTAVSAPLIVTCGADKRIIVRDARHNFAEVCAITDHDDFVYSMEVIGNILLSGAGNGRLLVHDVETGELLYELKANAAAVREMFASPSVLVAAGDDGNAKVFDFM | not soluble
MRQKGHRHGRTVSPCAGCKLLRRKCVKDSCVFAPYFPAKEPYKFAIVHKIFGASNVNKMLQELSENHRSDAVDSMVYEANARIQDPVYGCVGTISSLHRQLETLQTQLAFAQAELIHIRTLHRIHTKPPPYTASTVTFPSNKDFYSDIDMAVAYTDDAGDFLWSC | soluble
MAHHHHHHMTTADDVCGAYTLSHCDGKVAPTKATLTIHRCGEILTAHVTVVNDLRGTVQYENCHIVGSLHSTGNEASPAQESVEQALSKGFADGFNVVVEMNQVLLKNANSAFVFARLSKLSDLNGEHAIIAINDQPPNQEMTMIFTPDGNGGSFVAANIANSLRGNCQIDAGLLRGDLATTQSEADESLMQVEKLISEGFQQGFHVCMNESGILLQSSEANIQLCRIVSHSDLEGEYVLKSFNGAPVPTRNQPSIVFKSVNTNEVEISIVVANRIRGTAALNQNVLSSEEPLMSTRMMGTEEESQLENAFNVGFQYGLETISHGNELTLKNQDCKFVLVKAAAPAAQHGGPTYKGTYCNKCFKTEGNGLLFRIVNEHEKKWAFYNDTEDLRIRVRATFGARSKIEALDNANMYKDDDGRYVVEVTVDPQATEMFIQGDVNGFRVLYDAQPI | not soluble
GHHHHHHAIAENLYFQSKDVPGFLQQSQSSGPGQPAVWHRLEELYTKKLWHQLTLQVLDFVQDPCFAQGDGLIKLYENFISEFEHRVNPLSLVEIILHVVRQMTDPNVALTFLEKTREKVKSSDEAVILCKTAIGALKLNIGDLQVTKETIEDVEEMLNNLPGVTSVHSRFYDLSSKYYQTIGNHASYYKDALRFLGCVDIKDLPVSEQQERAFTLGLAGLLGEGVFNFGELLMHPVLESLRNTDRQWLIDTLYAFNSGNVERFQTLKTAWGQQPDLAANEAQLLRKIQLLCLMEMTFTRPANHRQLTFEEIAKSAKITVNEVELLVMKALSVGLVKGSIDEVDKRVHMTWVQPRVLDLQQIKGMKDRLEFWCTDVKSMEMLVEHQAHDILT | soluble
MKLKSFGVFGNPIKHSKSPLIHNACFLTFQKELRFLGHYHPILLPLESHIKSEFLHLGLSGANVTLPFKERAFQVCDKIKGIALECGAVNTLVLENDELVGYNTDALGFYLSLKQKNYQNALILGAGGSAKALACELKKQGLQVSVLNRSSRGLDFFQRLGCDCFMEPPKSAFDLIINATSASLHNELPLNKEVLKGYFKEGKLAYDLAYGFLTPFLSLAKELKTPFQDGKDMLIYQAALSFEKFSASQIPYSKAFEVMRSVFLEHHHHHH | soluble
